We go through one substance from paper PMC12121997.

The target of assay [1] is Nucleosome core particle: Cse4-containing histone octamer wrapped with Widom 601 DNA (S. cerevisiae | K. lactis) (UniProt P36012). The assay is described as follows: optical trap assay (bead-microtubule binding, then rupture force); 40 nM His6-NCPs held on anti-His6 polystyrene beads; 10 nM OA or 20 nM Mif2, 10 nM 2D-MIND, 10 nM Ndc80c and 5 nM Dam1c free in solution; bead brought by laser trap to the dynamic plus end of a surface-anchored microtubule; 1x BRB80, 1 mM GTP, 16 uM tubulin, room temperature; 1 pN preload, then ramping force until detachment; negative controls with OA or Mif2 omitted.

Assay [2] addresses Nucleosome core particle: Cse4-containing histone octamer wrapped with chimeric centromeric DNA (CCEN) (S. cerevisiae | K. lactis) (UniProt P36012). The description is as above.

In the case of “Mif2-linker-(27-392)MBP (from UniProt P35201 1-549) (natural protein)”, the percent of NCP-coated beads that bound microtubules in assay [1] and in assay [2] was more than 78% throughout.
